# Target: the molecule itself
# Assay: phase separation
protein,measurement,value
"FUS low complexity N-terminal domain (residues 1-163) (domain or fragment, human, UniProt P35637 1-163, looked up) MASNDYTQQATQSYGAYPTQPGQGYSQQSSQPYGQQSYSGYSQSTDTSGYGQSSYSSYGQSQNTGYGTQSTPQGYGSTGGYGSSQSSQSSYGQQSSYPGYGQQPAPSSTSGSYGSSSQSSSYGQPQSGSYSQQPSYGGQQQSYGQQQSYNPPQGYGQQNQYNS",binding result,binds

# Reference: PMC4609301 (Molecular cell, 2015)
